According to article PMC11614108, “Structures of Trichomonas vaginalis macrophage migratory inhibitory factor” (Acta Crystallographica Section F: Structural Biology …, 2024):

Key:
[1] = biological target: N-terminally hexahistidine-tagged Trichomonas vaginalis macrophage migration inhibitory factor (Trichomonas vaginalis ATCC PRA-98/G3); experiment: crystal structure; His-TvMIF crystallized at 291 K by sitting-drop vapor diffusion; apo P4(1)2(1)2 form (PDB 8uz4) and I4(1)22 form from an attempt at co-crystallization with 5 mM sodium 4-hydroxyphenylpyruvate (PDB 8ur4); three monomers per asymmetric unit
[2] = biological target: N-terminally hexahistidine-tagged Trichomonas vaginalis macrophage migration inhibitory factor (Trichomonas vaginalis ATCC PRA-98/G3); experiment: crystal structure; His-TvMIF co-crystallized with 5 mM sodium pyruvate, Morpheus B12, 291 K, space group I4(1) (PDB 8ur2); six monomers
[3] = biological target: T1, His-TvMIF (T. vaginalis macrophage migration inhibitory factor) (Trichomonas vaginalis, UniProt A2DXT4); experiment: X-ray crystal structure, co-crystallization, […] A; assay type: binding; conditions: 5 mM sodium pyruvate, pH 7.0 protein buffer, reservoir pH 8.5, 291 K; non-canonical site at Asp68, not the tautomerase site (blocked by N-terminal tag); possibly a crystallization artifact
T1 construct: gene TVAG_219770; ~15 kDa monomer; trimer in crystal (8ur2: dimer of trimers)

| Molecule | stoichiometry N [1] | stoichiometry N [2] | X-ray crystal structure, co-crystallization, 1.90 A [3] |
| --- | --- | --- | --- |
| N-terminally hexahistidine-tagged Trichomonas vaginalis macrophage migration inhibitory factor (natural protein) | 3 | 6 | – |
| CC(=O)C(=O)O [pyruvate] | – | – | The Fo − Fc omit electron-density maps of PDB entry 8ur2 can be modeled with pyruvate |
